Measured values as given in publication PMC10437922, “DNAJB3 attenuates ER stress through direct interaction with AKT” (PLOS ONE, 2023).

Target: T1, His-AKT1 (human, UniProt P31749 1-480)
T1 construct: 'human' stands only before DNAJB3; also called pH6K-AKT1; source: E. coli BL21 (DE3), purified (Ni-NTA, gel filtration Superdex 200)
Test: ITC; DNAJB3 (250 uM, syringe) titrated into 20 uM protein in the cell; 25°C; 25 mM Tris-HCl pH 8.0, 150 mM NaCl, 1 mM DTT; one-site binding model
Details: both partners purified

T1 sequence (P31749 whole entry): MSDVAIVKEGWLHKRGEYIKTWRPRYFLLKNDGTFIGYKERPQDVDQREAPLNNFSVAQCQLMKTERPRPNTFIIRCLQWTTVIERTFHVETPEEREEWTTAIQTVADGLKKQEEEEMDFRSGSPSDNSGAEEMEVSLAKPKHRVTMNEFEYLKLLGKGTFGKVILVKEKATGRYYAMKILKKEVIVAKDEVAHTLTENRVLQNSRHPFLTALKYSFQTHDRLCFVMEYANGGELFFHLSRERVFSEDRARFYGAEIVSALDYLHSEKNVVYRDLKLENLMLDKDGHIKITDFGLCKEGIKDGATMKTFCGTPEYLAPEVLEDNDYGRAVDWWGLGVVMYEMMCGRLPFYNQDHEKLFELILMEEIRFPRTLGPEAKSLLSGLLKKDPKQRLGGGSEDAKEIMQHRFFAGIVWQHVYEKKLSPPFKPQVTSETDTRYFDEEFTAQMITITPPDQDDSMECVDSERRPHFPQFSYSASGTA

B1: His-DNAJB3 (natural protein)
chain: not shown
notes: 6xHIS residues'; also called hDNAJB3; pH6K-DNAJB3; source: E. coli BL21 (DE3), purified (Ni-NTA, gel filtration Superdex 200)
Which Kd does the source give for B1 here?
The Kd was roughly 62 µM.

What about the “stoichiometry N” value of the same binder?
Its value is 0.84.
